# Reference: paper PMC7709199, “Homogeneously N-glycosylated proteins derived from the GlycoDelete HEK293 cell line enable diffraction-quality crystallogenesis” (Acta Crystallographica. Section D, Structural Biology, 2020)
# B1: human Down syndrome cell-adhesion molecule fragment DSCAM_(Ig7–Ig9) (domain or fragment)
# chain: TVPPFIQPFEFPRFSIGQRVFIPCVVVSGDLPITITWQKDGRPIPGSLGVTIDNIDFTSSLRISNLSLMHNGNYTCIARNEAAAVEHQSQLIVRVPPKFVVQPRDQDGIYGKAVILNCSAEGYPVPTIVWKFSKGAGVPQFQPIALNGRIQVLSNGSLLIKHVVEEDSGYYLCKVSNDVGADVSKSMYLTVKIPAMITSYPNTTLATQGQKKEMSCTAHGEKPIIVRWEKEDRIINPEMARYLVSTKEVGEEVISTLQILPTVREDSGFFSCHAINSYGEDRGIIQLTVQEE
# modifications: GlycoDelete N-glycan stubs at Asn666, Asn710, Asn748 and Asn795 (full Neu5AcGalGlcNAc at Asn795)
# notes: one-residue cloning scar (Thr594) at the N-terminus; Down syndrome cell-adhesion molecule (DSCAM), human, UniProt O60469, residues 595–884 (Val595–Glu884), immunoglobulin domains Ig7, Ig8 and Ig9; one-residue cloning scar (Glu885) before the C-terminal 6×His tag; Expressed from pXLG behind a 34-residue signal peptide of pregnancy-specific glycoprotein 1 (UniProt P11464); The signal peptide is not …
# B2: murine IL-12B (natural protein, UniProt P43432 23-335, looked up)
# chain: MWELEKDVYVVEVDWTPDAPGETVNLTCDTPEEDDITWTSDQRHGVIGSGKTLTITVKEFLDAGQYTCHKGGETLSHSHLLLHKKENGIWSTEILKNFKNKTFLKCEAPNYSGRFTCSWLVQRNMDLKFNIKSSSSSPDSRAVTCGMASLSAEKVTLDQRDYEKYSVSCQEDVTCPTAEETLPIELALEARQQNKYENYSTSFFIRDIIKPDPPKNLQMKPLKNSQVEVSWEYPDSWSTPHSYFSLKFFVRIQRKKEKMKETEEGCNQKGAFLVEKTSTEVQCKGGNVCVQAQDRYYNSSCSKWACVPCRVRS
# modifications: immature N-linked glycan on Asn220 (modelled as Man4GlcNAc2)
# notes: signal peptide in the construct; The dimeric SEC fractions (disulfide-linked homodimer through Cys197) were pooled, polished on Mono Q and crystallised; also called IL-12p40 (monomer); IL-12p80 (homodimer); source: HEK293 GlycoDelete cells, transfected, secreted; purified (IMAC, SEC, Mono Q anion exchange)
# Experiments:
# [1] = X-ray diffraction; details: glycan changed form; control: HEK293T-expressed protein
# [2] = achievable concentration for crystal screens; details: glycan lost; control: undigested HEK293S MGAT1−/− material
# [3] = achievable concentration of CSF-1 complex; details: glycan changed form; control: wild-type (HEK293T) material
# [4] = X-ray diffraction of CSF-1 complex crystals; details: glycan changed form; control: HEK293T-expressed receptor
# [5] = initial expression tests; details: glycan lost; control: other CSF-1RD1–D3 constructs
# [6] = target: the molecule itself; test: crystal structure; DSCAM_(Ig7–Ig9) from HEK293 GlycoDelete cells; space group C2, one molecule in the asymmetric unit, oligomer by crystallographic symmetry; 0.2 M calcium acetate, 10% PEG 8000, 0.1 M HEPES pH 7.5, 3% glycerol; 1.85 Å
# [7] = target: the molecule itself; test: SEC; size-exclusion chromatography of IMAC-purified murine IL-12B from GD cells
molecule,measurement,setting,value
Down syndrome cell-adhesion molecule (DSCAMIg7–Ig9): GlycoDelete expression,"other: crystal diffraction quality, other: diffraction limit",[1],"increases, 1.85 vs ∼8"
colony-stimulating factor 1 receptor (CSF-1RD1–D3): EndoH digestion,other: solubility,[2],decreases
colony-stimulating factor 1 receptor (CSF-1RD1–D3): GlycoDelete expression,other: solubility,[3],no change
colony-stimulating factor 1 receptor (CSF-1RD1–D3): HEK293S MGAT1−/− expression,"other: crystal diffraction quality, other: diffraction limit",[4],"increases, 4.5 vs did not diffract"
colony-stimulating factor 1 receptor (CSF-1RD1–D3): N73Q,expression_or_secretion,[5],abolishes
colony-stimulating factor 1 receptor (CSF-1RD1–D3): N153Q,expression_or_secretion,[5],no change
colony-stimulating factor 1 receptor (CSF-1RD1–D3): N240Q,expression_or_secretion,[5],no change
colony-stimulating factor 1 receptor (CSF-1RD1–D3): N275Q,expression_or_secretion,[5],no change
B1,binding result,[6],binds
B2,stoichiometry N,[7],2
